Test [1] deals with T1, huCD3e-mFc (human, UniProt P07766 23-126).
T1 construct: not shown: mFc, not described
Briefly: Pool 3 screen.

Test [2] addresses T1, huCD3e-mFc. Briefly: Pool 3 screen, R2.
Test [3] deals with T1, huCD3e-mFc. Briefly: Pool 3 screen, R3.

The source of these data is US20260167728A1 (published 2026).

Substitutions are numbered along the chain they refer to.

T1 sequence (P07766 23-126): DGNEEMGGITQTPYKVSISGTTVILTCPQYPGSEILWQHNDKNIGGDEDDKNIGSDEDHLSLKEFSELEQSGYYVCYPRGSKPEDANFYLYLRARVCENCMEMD

B1: AC3797 (CD3.293) (scFv, V domains shown)
VH: EVQLVESGGGIVQPGGSLRLSCAASGFTFSTYAMNWVRQAPGKGLEWVGRIRTKRNNYATYYADSVKGRFTISRDDSKNTVYLQMNSLKTEDTAVYYCVRHENFGNSYVSWFAHWGQGTLVTVSS
VL: ELVVTQEPSLTVSPGGTVTLTCRSSNGAVTSSNYANWVQQKPGQAPRGLIGGTNKRAPGTPARFSGSALGGKAALTLSGVQPEDEAVYYCALWYPNLWVFGGGTKLTVL
notes: Pool 3 format (remarks)
Usually Kd stands for the concentration at which binding is half-saturated. Consider B1, for which the results for the Kd with huCD3e-mFc [1] and in the test with huCD3e-mFc [2] were 3.8 nM and 3.72 nM, respectively.

B2: AC3886 (CD3.382) (scFv, V domains shown)
VH: B1 VH with S107A
VL: B1 VL with A68L
notes: Pool 3 format (remarks)
With B2, in the test with huCD3e-mFc [2], the Kd is 21.2 nM.

B3: AC3829 (CD3.325) (scFv, V domains shown)
VH: B1 VH with S30N, R55T
VL: B1 VL with A68L, L69D
notes: Pool 3 format (remarks)
B3: in the test with huCD3e-mFc [1], the affinity, expressed as Kd, was 10.1 nM.

B4: AC3837 (CD3.333) (scFv, V domains shown)
VH: B1 VH with S30N, R55T, N57D, V81A
VL: B1 VL with A68L, L69G
notes: Pool 3 format (remarks)
With B4, in the test with huCD3e-mFc [1], binding was characterised by a dissociation constant (Kd) of 17.9 nM. Against the preceding molecule, the Kd is about 1.8-fold higher.

B5: AC3841 (CD3.337) (scFv, V domains shown)
VH: B1 VH with S30N, R55T, N57D, V81L
VL: B1 VL with A68L
notes: Pool 3 format (remarks)
As to B5, in the test with huCD3e-mFc [1], the Kd turned out to be 12.2 nM. The Kd values of the last two molecules are within 1.5-fold of each other.

B6: AC3839 (CD3.335) (scFv, V domains shown)
VH: B1 VH with S30N, R55T, N57D, V81A
VL: B1 VL with A68L, A74G
notes: Pool 3 format (remarks)
Take B6: the Kd in the test with huCD3e-mFc [1] stood at 24.5 nM. This Kd lies about 2-fold higher than the previous one.

B7: AC3840 (CD3.336) (scFv, V domains shown)
VH: B1 VH with S30N, R55T, N57D, V81A
VL: B1 VL with A68L, G70E
notes: Pool 3 format (remarks)
Take B7: the Kd with huCD3e-mFc [1] was determined as 32.6 nM.

B8: AC3801 (CD3.297) (scFv, V domains shown)
VH: B1 VH
VL: B1 VL with A68L, L69G
notes: Pool 3 format (remarks)
With B8, the Kd with huCD3e-mFc [1] came out at 3.92 nM; with huCD3e-mFc [2] it was 21.2 nM.

B9: AC3809 (CD3.305) (scFv, V domains shown)
VH: B1 VH with N57D, V81A
VL: B1 VL with A68L, L69E
notes: Pool 3 format (remarks)
Consider B9, for which the Kd with huCD3e-mFc [1] turned out to be 6.28 nM; with huCD3e-mFc [3], 4.6 nM.

B10: AC3805 (CD3.301) (scFv, V domains shown)
VH: B1 VH with N57D, V81A
VL: B1 VL with A68L
notes: Pool 3 format (remarks)
As for B10, the equilibrium dissociation constant (Kd) in the test with huCD3e-mFc [1] stood at 5.53 nM; with huCD3e-mFc [3], 4.4 nM.

B11: AC3848 (CD3.344) (scFv, V domains shown)
VH: B1 VH with S30N, R55T, N57D, V81L
VL: B1 VL with A68L, A74G
notes: Pool 3 format (remarks)
In the test with huCD3e-mFc [1], B11 returned a Kd of 14.2 nM. This counts as double-digit nanomolar.

B12: AC3843 (CD3.339) (scFv, V domains shown)
VH: B1 VH with S30N, R55T, N57D, V81L
VL: B1 VL with A68G
notes: Pool 3 format (remarks)
B12: in the test with huCD3e-mFc [1], the Kd worked out at 15.4 nM. This Kd and that of the molecule before are within 1.5-fold of each other.

B13: AC3834 (CD3.330) (scFv, V domains shown)
VH: B1 VH with S30N, R55T, N57D, V81A
VL: B1 VL with A68G
notes: Pool 3 format (remarks)
Turning to B13, in the test with huCD3e-mFc [1], binding was put at a Kd of 23.4 nM.

B14: AC3882 (CD3.378) (scFv, V domains shown)
VH: B1 VH with Y62D
VL: B1 VL with A68L
notes: Pool 3 format (remarks)
Molecule B14 registered a Kd with huCD3e-mFc [1] of 3.74 nM.

B15: AC3850 (CD3.346) (scFv, V domains shown)
VH: B1 VH with R55T
VL: B1 VL with A68L
notes: Pool 3 format (remarks)
Turning to B15, the values for the Kd in the test with huCD3e-mFc [1] and with huCD3e-mFc [2] were 9.83 nM and 10.8 nM, respectively.

B16: AC3835 (CD3.331) (scFv, V domains shown)
VH: B1 VH with S30N, R55T, N57D, V81A
VL: B1 VL with A68L, L69N
notes: Pool 3 format (remarks)
B16 came in with a Kd with huCD3e-mFc [1] of 35.7 nM. In other words, the double-digit nanomolar range.

B17: AC3847 (CD3.343) (scFv, V domains shown)
VH: B1 VH with S30N, R55T, N57D, V81L
VL: B1 VL with A68L, L69D
notes: Pool 3 format (remarks)
Consider B17, for which binding with huCD3e-mFc [1] was put at a Kd of 14 nM.

B18: AC3846 (CD3.342) (scFv, V domains shown)
VH: B1 VH with S30N, R55T, N57D, V81L
VL: B1 VL with A68L, L69G
notes: Pool 3 format (remarks)
In the test with huCD3e-mFc [1], B18 displayed a Kd of 9.99 nM.

B19: AC3842 (CD3.338) (scFv, V domains shown)
VH: B1 VH with S30N, R55T, N57D, V81L
VL: B1 VL
notes: Pool 3 format (remarks)
B19: in the test with huCD3e-mFc [1], the dissociation constant (Kd) is 17 nM.

B20: AC3826 (CD3.322) (scFv, V domains shown)
VH: B1 VH with S30N, R55T
VL: B1 VL with A68L, L69N
notes: Pool 3 format (remarks)
Regarding B20, the Kd with huCD3e-mFc [1] amounted to 7 nM. Against the preceding molecule, the Kd is about 2.4-fold lower.

B21: AC3803 (CD3.299) (scFv, V domains shown)
VH: B1 VH
VL: B1 VL with A68L, A74G
notes: Pool 3 format (remarks)
Take B21: the Kd with huCD3e-mFc [2] amounted to 7.96 nM. This lies in the single-digit nanomolar range.

B22: AC3800 (CD3.296) (scFv, V domains shown)
VH: B1 VH
VL: B1 VL with A68L, L69E
notes: Pool 3 format (remarks)
Turning to B22, the Kd in the test with huCD3e-mFc [1] is 4.74 nM; with huCD3e-mFc [2], 17 nM.

B23: AC3660 (CD3.229) (bispecific antibody, V domains shown)
VH: B1 VH with S30N, R55T
VL: B1 VL with A68L
notes: Pool 2 format (remarks)
In the test with huCD3e-mFc [1], B23 had a Kd of 13.6 nM.

B24: AC3869 (CD3.365) (scFv, V domains shown)
VH: B1 VH with R55T, N57D, V81L
VL: B1 VL
notes: Pool 3 format (remarks)
Turning to B24, in the test with huCD3e-mFc [1], the Kd stood at 18.8 nM.

B25: AC3885 (CD3.381) (scFv, V domains shown)
VH: B1 VH with N106A
VL: B1 VL with A68L
notes: Pool 3 format (remarks)
In the test with huCD3e-mFc [3], B25 gave a Kd of 4.2 nM. This counts as single-digit nanomolar.

B26: AC3828 (CD3.324) (scFv, V domains shown)
VH: B1 VH with S30N, R55T
VL: B1 VL with A68L, L69G
notes: Pool 3 format (remarks)
Regarding B26, the Kd with huCD3e-mFc [1] is 7.21 nM.

B27: AC3878 (CD3.374) (scFv, V domains shown)
VH: B1 VH with V48G
VL: B1 VL with A68L
notes: Pool 3 format (remarks)
Turning to B27, in the test with huCD3e-mFc [2], binding was put at a Kd of 17 nM.

B28: AC3883 (CD3.379) (scFv, V domains shown)
VH: B1 VH with Y62W
VL: B1 VL with A68L
notes: Pool 3 format (remarks)
As to B28, the affinity in the test with huCD3e-mFc [1], expressed as Kd, was 4.19 nM.

B29: AC3877 (CD3.373) (scFv, V domains shown)
VH: B1 VH with W47D
VL: B1 VL with A68L
notes: Pool 3 format (remarks)
In turn, B29 gave an equilibrium dissociation constant (Kd) in the test with huCD3e-mFc [1] of 8.92 nM.

B30: AC3802 (CD3.298) (scFv, V domains shown)
VH: B1 VH
VL: B1 VL with A68L, L69D
notes: Pool 3 format (remarks)
With B30, the equilibrium dissociation constant (Kd) with huCD3e-mFc [1] was determined as 4.07 nM; with huCD3e-mFc [2] it was 8 nM.

B31: AC3884 (CD3.380) (scFv, V domains shown)
VH: B1 VH with A59T
VL: B1 VL with A68L
notes: Pool 3 format (remarks)
Take B31: binding with huCD3e-mFc [1] was characterised by a dissociation constant (Kd) of 4.54 nM.

B32: AC3867 (CD3.363) (scFv, V domains shown)
VH: B1 VH with R55T, N57D, V81A
VL: B1 VL with A68L, G70E
notes: Pool 3 format (remarks)
As for B32, in the test with huCD3e-mFc [1], the Kd was found to be 62.7 nM.

B33: AC3838 (CD3.334) (scFv, V domains shown)
VH: B1 VH with S30N, R55T, N57D, V81A
VL: B1 VL with A68L, L69D
notes: Pool 3 format (remarks)
In the case of B33, in the test with huCD3e-mFc [1], binding was put at a Kd of 30.7 nM.

B34: AC3844 (CD3.340) (scFv, V domains shown)
VH: B1 VH with S30N, R55T, N57D, V81L
VL: B1 VL with A68L, L69N
notes: Pool 3 format (remarks)
With B34, binding with huCD3e-mFc [1] was characterised by a dissociation constant (Kd) of 10.6 nM.

B35: AC3659 (CD3.228) (bispecific antibody, V domains shown)
VH: B1 VH
VL: B1 VL with A68L
notes: Pool 2 format (remarks)
Take B35: the Kd in the test with huCD3e-mFc [1] was found to be 5.14 nM.

B36: AC3798 (CD3.294) (scFv, V domains shown)
VH: B1 VH
VL: B1 VL with A68G
notes: Pool 3 format (remarks)
As to B36, the results for the Kd in the test with huCD3e-mFc [1] and in the test with huCD3e-mFc [2] were 3.05 nM and 5.75 nM, respectively.

B37: AC3880 (CD3.376) (scFv, V domains shown)
VH: B1 VH with R55P
VL: B1 VL with A68L
notes: Pool 3 format (remarks)
In the case of B37, binding in the test with huCD3e-mFc [1] was put at a Kd of 12.9 nM. In other words, the double-digit nanomolar range.

B38: AC3845 (CD3.341) (scFv, V domains shown)
VH: B1 VH with S30N, R55T, N57D, V81L
VL: B1 VL with A68L, L69E
notes: Pool 3 format (remarks)
Consider B38, for which binding with huCD3e-mFc [1] was put at a Kd of 15.8 nM.

B39: AC3825 (CD3.321) (scFv, V domains shown)
VH: B1 VH with S30N, R55T
VL: B1 VL with A68G
notes: Pool 3 format (remarks)
B39 returned a Kd in the test with huCD3e-mFc [1] of 10 nM. Compared with the last molecule, the Kd is about 1.6-fold lower.

B40: AC3849 (CD3.345) (scFv, V domains shown)
VH: B1 VH with S30N, R55T, N57D, V81L
VL: B1 VL with A68L, G70E
notes: Pool 3 format (remarks)
In turn, B40 yielded a Kd with huCD3e-mFc [1] of 18 nM.

B41: AC3836 (CD3.332) (scFv, V domains shown)
VH: B1 VH with S30N, R55T, N57D, V81A
VL: B1 VL with A68L, L69E
notes: Pool 3 format (remarks)
B41 had a Kd with huCD3e-mFc [1] of 30.6 nM.

B42: AC3830 (CD3.326) (scFv, V domains shown)
VH: B1 VH with S30N, R55T
VL: B1 VL with A68L, A74G
notes: Pool 3 format (remarks)
For the molecule B42, the Kd with huCD3e-mFc [1] was 6.65 nM.

B43: AC3857 (CD3.353) (scFv, V domains shown)
VH: B1 VH with R55T
VL: B1 VL with A68L, A74G
notes: Pool 3 format (remarks)
In the test with huCD3e-mFc [1], B43 showed a Kd of 12.3 nM.
